We go through 1 substance from article PMC3799227.

In data set [1] the test system is BaeR-P (phosphorylated BaeR) (Salmonella enterica serovar Typhimurium). Nature of the data set: EMSA. A general note: Mobility shift assays separate free from complexed probe on a gel.
Data set [2] deals with BaeR (Salmonella enterica serovar Typhimurium). Put plainly: EMSA.

With sodA promoter fragment A (wild type), the values for the binding in data set [1] and in data set [2] were 0.6 µM and 0.9 µM, respectively.
